Measured values from publication PMC3176798, “Movement Protein Pns6 of Rice dwarf phytoreovirus Has Both ATPase and RNA Binding Activities”.

How the values were obtained:
[1] = molecular target: T1, His-Pns6 (Rice dwarf phytoreovirus (RDV), UniProt Q85438 1-509); assay: northwestern blot; EMSA: 50 mM Tris-HCl pH 7.5, 50 mM NaCl, 10% glycerol, 20 min on ice; northwestern: 20 mM Tris-HCl pH 7.5, 50 mM NaCl, 0.1% Triton X-100, 1 mM DTT, 1 mM EDTA, 0.02% Ficoll 400 (renaturation and washes at 4 C), UV crosslinking after washing; settings: protein: recombinant; tags: His (pET28a); label: 32P 5' end when probe; 3' overhang 2 nt (UU) on both strands, 19 bp
T1 sequence: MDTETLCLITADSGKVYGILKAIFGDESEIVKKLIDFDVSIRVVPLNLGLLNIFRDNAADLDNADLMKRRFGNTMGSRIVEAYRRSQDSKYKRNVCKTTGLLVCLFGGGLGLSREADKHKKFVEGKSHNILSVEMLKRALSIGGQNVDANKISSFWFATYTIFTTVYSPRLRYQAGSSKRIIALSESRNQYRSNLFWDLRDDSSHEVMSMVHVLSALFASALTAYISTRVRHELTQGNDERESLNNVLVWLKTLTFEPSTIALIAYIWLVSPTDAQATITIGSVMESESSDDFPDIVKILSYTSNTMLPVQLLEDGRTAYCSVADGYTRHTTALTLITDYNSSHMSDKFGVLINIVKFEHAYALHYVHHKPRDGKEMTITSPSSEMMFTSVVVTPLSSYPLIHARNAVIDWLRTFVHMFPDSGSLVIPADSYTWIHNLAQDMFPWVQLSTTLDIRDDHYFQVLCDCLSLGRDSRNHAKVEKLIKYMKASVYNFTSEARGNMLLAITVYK

[2] = molecular target: T1, His-Pns6; assay: competition EMSA; vs labeled S3-5; equal to other dsRNAs; EMSA: 50 mM Tris-HCl pH 7.5, 50 mM NaCl, 10% glycerol, 20 min on ice; northwestern: 20 mM Tris-HCl pH 7.5, 50 mM NaCl, 0.1% Triton X-100, 1 mM DTT, 1 mM EDTA, 0.02% Ficoll 400 (renaturation and washes at 4 C), UV crosslinking after washing; settings: protein: recombinant, tags: His (pET28a), blunt
[3] = molecular target: T1, His-Pns6; assay: competition EMSA; vs labeled S3-5a; higher than antisense strands; EMSA: 50 mM Tris-HCl pH 7.5, 50 mM NaCl, 10% glycerol, 20 min on ice; northwestern: 20 mM Tris-HCl pH 7.5, 50 mM NaCl, 0.1% Triton X-100, 1 mM DTT, 1 mM EDTA, 0.02% Ficoll 400 (renaturation and washes at 4 C), UV crosslinking after washing; settings: protein: recombinant; tags: His (pET28a); label: 32P 5' end when probe
[4] = molecular target: T1, His-Pns6; assay: competition EMSA; vs labeled S3-5a; less than sense strands; EMSA: 50 mM Tris-HCl pH 7.5, 50 mM NaCl, 10% glycerol, 20 min on ice; northwestern: 20 mM Tris-HCl pH 7.5, 50 mM NaCl, 0.1% Triton X-100, 1 mM DTT, 1 mM EDTA, 0.02% Ficoll 400 (renaturation and washes at 4 C), UV crosslinking after washing; settings: protein: recombinant; tags: His (pET28a); label: 32P 5' end when probe
[5] = molecular target: T1, His-Pns6; assay: competition EMSA; vs labeled S3-5a; highest; EMSA: 50 mM Tris-HCl pH 7.5, 50 mM NaCl, 10% glycerol, 20 min on ice; northwestern: 20 mM Tris-HCl pH 7.5, 50 mM NaCl, 0.1% Triton X-100, 1 mM DTT, 1 mM EDTA, 0.02% Ficoll 400 (renaturation and washes at 4 C), UV crosslinking after washing; settings: protein: recombinant; tags: His (pET28a); label: 32P 5' end when probe

B1: dsR (dsRNA)
RNA 1: UUCUCCGAACGUGUCACGUUU
RNA 2: ACGUGACACGUUCGGAGAAUU
binding result [1]: binds

B2: S3-3 (dsRNA)
RNA 1: UGUUUUGCUUGGUUCCUGAU
RNA 2: AUCAGGAACCAAGCAAAACA
binding result [2]: binds

B3: S3m (dsRNA)
RNA 1: CAAUCAAUAUGCUCGCCCCA
RNA 2: UGGGGCGAGCAUAUUGAUUG
binding result [2]: binds

B4: S3-5 (dsRNA)
RNA 1: GGCAAAAUCGAGCGAACAAU
RNA 2: AUUGUUCGCUCGAUUUUGCC
binding result ([2]; label: 32P 5' end when probe): binds

UGUUUUGCUUGGUUCCUGAU (ssRNA) [S3-3s]
binding result [3]: binds

AUUGUUCGCUCGAUUUUGCC (ssRNA) [S3-5a]
binding result [4]: binds

GGCAAAAUCGAGCGAACAAU (ssRNA) [S3-5s]
binding result [5]: binds

AUCAGGAACCAAGCAAAACA (ssRNA) [S3-3a]
binding result [4]: binds
